Measured values from publication PMC11779849.

Tests used:
[1] = target: full length WT-Pcad with an mCherry tag on the C-terminus (human) (UniProt P22223); experiment: co-IP; lysates of A431 Pcad-mCherry cells grown 48 h without or with CQY684 Fab (200 nM); anti-mCherry rabbit mAb on magnetic protein G beads pulls down Pcad as bait; p120 detected by Western blot, p120/Pcad ratio normalised to WT -CQY; M2 lysis buffer pH 7.5, 50 mM Tris-HCl, 150 mM NaCl, 1% SDS, 1% Triton-X 100
[2] = target: full length W2A-Pcad with an mCherry tag on the C-terminus (human); experiment: as above
full length W2A-Pcad with an mCherry tag on the C-terminus (human), sequence (P22223 whole entry W109A): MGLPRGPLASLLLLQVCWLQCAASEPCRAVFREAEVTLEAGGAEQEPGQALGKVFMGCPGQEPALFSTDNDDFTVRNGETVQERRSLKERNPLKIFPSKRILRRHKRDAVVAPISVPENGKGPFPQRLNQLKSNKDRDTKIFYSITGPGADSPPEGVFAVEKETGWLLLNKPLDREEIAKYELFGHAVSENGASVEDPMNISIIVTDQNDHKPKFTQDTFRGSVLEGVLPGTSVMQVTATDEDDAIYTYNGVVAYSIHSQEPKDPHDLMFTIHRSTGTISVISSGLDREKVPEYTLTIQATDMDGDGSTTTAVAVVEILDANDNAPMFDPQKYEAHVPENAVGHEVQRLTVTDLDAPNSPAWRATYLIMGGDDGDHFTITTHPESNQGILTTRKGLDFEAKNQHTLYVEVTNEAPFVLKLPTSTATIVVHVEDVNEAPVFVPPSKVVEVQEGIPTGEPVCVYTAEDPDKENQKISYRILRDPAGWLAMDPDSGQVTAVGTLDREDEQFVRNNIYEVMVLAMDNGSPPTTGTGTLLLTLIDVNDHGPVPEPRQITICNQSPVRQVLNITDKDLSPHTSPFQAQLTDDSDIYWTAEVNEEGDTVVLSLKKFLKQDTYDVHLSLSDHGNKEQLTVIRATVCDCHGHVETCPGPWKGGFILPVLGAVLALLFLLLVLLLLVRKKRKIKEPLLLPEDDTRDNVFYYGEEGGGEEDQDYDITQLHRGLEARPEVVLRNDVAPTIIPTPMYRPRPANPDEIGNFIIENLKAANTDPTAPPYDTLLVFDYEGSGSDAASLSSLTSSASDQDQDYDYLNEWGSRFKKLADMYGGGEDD

full length WT-Pcad with an mCherry tag on the C-terminus (human), sequence (P22223 25-829): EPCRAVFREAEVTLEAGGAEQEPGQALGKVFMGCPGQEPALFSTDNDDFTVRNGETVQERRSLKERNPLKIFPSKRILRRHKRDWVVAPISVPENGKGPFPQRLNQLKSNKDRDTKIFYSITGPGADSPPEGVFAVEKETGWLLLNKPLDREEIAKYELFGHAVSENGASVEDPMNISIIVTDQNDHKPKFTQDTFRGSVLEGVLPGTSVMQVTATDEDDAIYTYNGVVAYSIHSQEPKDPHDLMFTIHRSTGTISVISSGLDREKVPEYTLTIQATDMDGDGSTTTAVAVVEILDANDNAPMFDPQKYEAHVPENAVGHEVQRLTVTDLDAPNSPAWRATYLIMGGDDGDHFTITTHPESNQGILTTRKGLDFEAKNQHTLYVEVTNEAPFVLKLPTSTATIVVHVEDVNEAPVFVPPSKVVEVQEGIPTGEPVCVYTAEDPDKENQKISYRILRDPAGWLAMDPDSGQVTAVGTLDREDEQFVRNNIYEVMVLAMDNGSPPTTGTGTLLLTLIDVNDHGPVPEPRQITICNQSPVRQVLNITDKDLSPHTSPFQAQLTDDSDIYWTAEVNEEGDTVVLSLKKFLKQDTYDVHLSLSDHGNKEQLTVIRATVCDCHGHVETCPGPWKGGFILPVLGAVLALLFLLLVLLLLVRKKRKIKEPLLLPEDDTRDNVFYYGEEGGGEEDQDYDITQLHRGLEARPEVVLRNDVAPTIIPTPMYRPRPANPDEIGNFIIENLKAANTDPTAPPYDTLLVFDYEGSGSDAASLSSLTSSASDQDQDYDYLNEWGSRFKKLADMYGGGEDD

B1: p120-catenin (natural protein)
chain: MDDSEVESTASILASVKEQEAQFEKLTRALEEERRHVSAQLERVRVSPQDANPLMANGTLTRRHQNGRFVGDADLERQKFSDLKLNGPQDHSHLLYSTIPRMQEPGQIVETYTEEDPEGAMSVVSVETSDDGTTRRTETTVKKVVKTVTTRTVQPVAMGPDGLPVDASSVSNNYIQTLGRDFRKNGNGGPGPYVGQAGTATLPRNFHYPPDGYSRHYEDGYPGGSDNYGSLSRVTRIEERYRPSMEGYRAPSRQDVYGPQPQVRVGGSSVDLHRFHPEPYGLEDDQRSMGYDDLDYGMMSDYGTARRTGTPSDPRRRLRSYEDMIGEEVPSDQYYWAPLAQHERGSLASLDSLRKGGPPPPNWRQPELPEVIAMLGFRLDAVKSNAAAYLQHLCYRNDKVKTDVRKLKGIPVLVGLLDHPKKEVHLGACGALKNISFGRDQDNKIAIKNCDGVPALVRLLRKARDMDLTEVITGTLWNLSSHDSIKMEIVDHALHALTDEVIIPHSGWEREPNEDCKPRHIEWESVLTNTAGCLRNVSSERSEARRKLRECDGLVDALIFIVQAEIGQKDSDSKLVENCVCLLRNLSYQVHREIPQAERYQEAAPNVANNTGPHAASCFGAKKGKDEWFSRGKKPIEDPANDTVDFPKRTSPARGYELLFQPEVVRIYISLLKESKTPAILEASAGAIQNLCAGRWTYGRYIRSALRQEKALSAIADLLTNEHERVVKAASGALRNLAVDARNKELIGKHAIPNLVKNLPGGQQNSSWNFSEDTVISILNTINEVIAENLEAAKKLRETQGIEKLVLINKSGNRSEKEVRAAALVLQTIWGYKELRKPLEKEGWKKSDFQVNLNNASRSQSSHSYDDSTLPLIDRNQKSDKKPDREEIQMSNMGSNTKSLDNNYSTPNERGDHNRTLDRSGDLGDMEPLKGTTPLMQDEGQESLEEELDVLVLDDEGGQVSYPSMQKI
p120 associated with Pcad in cells grown with CQY684 Fab, percent of the WT -CQY condition [1]: 60%
p120 associated with Pcad, percent of the WT -CQY condition [2]: 30%
